Reference: patent publication US20090280138A1 (OXFORD BIOMEDICA UK, published 2009)
Read-outs that look alike come from different tables or passages of the source.

Assays:
[1] = target: T1, MHC class I molecule HLA-A*0201 (iTopia plate-bound monomer) (biotin (bound to streptavidin-coated plate)); test: iTopia off-rate assay, 37 C; fit R^2 0.77
T1 construct: also called A2
Protocol: (§1) The 9 mers were tested for Peptide Binding, Off Rate and Affinity using iTopia Epitope Discovery System in accordance with the manufacturer's instructions. Briefly, 96 well microtitre plates coated with MHC molecules representing different MHC alleles are used to identify candidate peptides. […] Determinations are performed in duplicate using an ELISA plate reader and included allele specific positive controls.
(§2) A one-phase exponential decay curve, with a plateau given equal to 0, was generated using GraphPad Prism® software, which calculated the t1/2 and goodness-of-fit, as measured by r², for each peptide.

[2] = target: T1, MHC class I molecule HLA-A*0201 (iTopia …); test: iTopia off-rate assay, 37 C; fit R^2 0.31
Protocol: as §1, §2

[3] = target: T1, MHC class I molecule HLA-A*0201 (iTopia …); test: iTopia off-rate assay, 37 C; fit R^2 0.91
Protocol: as §1, §2

[4] = target: T1, MHC class I molecule HLA-A*0201 (iTopia …); test: iTopia off-rate assay, 37 C; fit R^2 0.87
Protocol: as §1, §2

[5] = target: T1, MHC class I molecule HLA-A*0201 (iTopia …); test: iTopia off-rate assay, 37 C; fit R^2 0.63
Protocol: as §1, §2

[6] = target: T1, MHC class I molecule HLA-A*0201 (iTopia …); test: iTopia off-rate assay, 37 C; fit R^2 0.95
Protocol: as §1, §2

[7] = target: T1, MHC class I molecule HLA-A*0201 (iTopia …); test: iTopia off-rate assay, 37 C; fit R^2 0.94
Protocol: as §1, §2

[8] = target: T2, MHC class I allele A*0101 monomer (human, biotinylated, bound to streptavidin-coated plate); test: iTopia, multiparametric iScore
T2 construct: placeholder peptide and b2M removed, then reconstituted with test peptide and fresh b2M; also called A1; HLA-A1
Protocol: as §1
(§3) Finally, multiparametric analysis is performed on the results from these assays and an iScore is generated. The iScore represents a measure of the overall quality of peptide-MHC binding, enabling candidate peptides to be ranked in order of binding quality and allowing rational prioritisation of peptides for functional cellular follow-up studies.

[9] = target: T3, MHC class I allele A*0201 monomer (human, biotinylated, bound to streptavidin-coated plate); test: iTopia, multiparametric iScore
T3 construct: also called A2; HLA-A2
Protocol: as §1, §3

[10] = target: T4, MHC class I allele A*0301 monomer (human, biotinylated, bound to streptavidin-coated plate); test: iTopia, multiparametric iScore
T4 construct: also called A3; HLA-A3
Protocol: as §1, §3

[11] = target: T2, MHC class I allele A*0101 monomer; test: iTopia, multiparametric iScore; remark: listed apart in the source
In short: (§4)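 9-mer peptides were tested on plates coated with MHC molecules, measuring binding, off-rate and affinity by ELISA in duplicate with allele-specific positive controls.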

[12] = target: T3, MHC class I allele A*0201 monomer; test: iTopia, multiparametric iScore; remark: listed apart in the source
In short: as §4

[13] = target: T4, MHC class I allele A*0301 monomer; test: iTopia, multiparametric iScore; remark: listed apart in the source
In short: as §4

[14] = target: T5, MHC class I allele B*0702 monomer (human, biotinylated, bound to streptavidin-coated plate); test: iTopia, multiparametric iScore
T5 construct: also called B7; HLA-B7
In short: as §4

[15] = target: T1, MHC class I molecule HLA-A*0201 (iTopia …); test: iTopia off-rate assay, 37 C; fit R^2 0.98
Protocol: as §1, §2

[16] = target: T6, MHC class I molecule HLA-A*0301 (iTopia plate-bound monomer) (biotin (bound to streptavidin-coated plate)); test: iTopia off-rate assay, 37 C; fit R^2 0.96
T6 construct: also called A3
Protocol: as §1, §2

[17] = target: T1, MHC class I molecule HLA-A*0201 (iTopia …); test: iTopia off-rate assay, 37 C; fit R^2 0.57
Protocol: as §1, §2

[18] = target: T1, MHC class I molecule HLA-A*0201 (iTopia …); test: iTopia off-rate assay, 37 C; fit R^2 0.75
Protocol: as §1, §2

[19] = target: T1, MHC class I molecule HLA-A*0201 (iTopia …); test: iTopia off-rate assay, 37 C; fit R^2 0.9
Protocol: as §1, §2

[20] = target: T1, MHC class I molecule HLA-A*0201 (iTopia …); test: iTopia off-rate assay, 37 C; fit R^2 0.97
Protocol: as §1, §2

[21] = target: T1, MHC class I molecule HLA-A*0201 (iTopia …); test: iTopia off-rate assay, 37 C; fit R^2 0.84
Protocol: as §1, §2

[22] = target: T1, MHC class I molecule HLA-A*0201 (iTopia …); test: iTopia off-rate assay, 37 C; fit R^2 0.85
Protocol: as §1, §2

[23] = target: T1, MHC class I molecule HLA-A*0201 (iTopia …); test: iTopia off-rate assay, 37 C; fit R^2 0.81
Protocol: as §1, §2

[24] = target: T1, MHC class I molecule HLA-A*0201 (iTopia …); test: iTopia off-rate assay, 37 C; fit R^2 0.78
Protocol: as §1, §2

[25] = target: T5, MHC class I allele B*0702 monomer; test: iTopia, multiparametric iScore; remark: listed apart in the source
Protocol: as §1, §3

[26] = target: T1, MHC class I molecule HLA-A*0201 (iTopia …); test: iTopia off-rate assay, 37 C; fit R^2 0.89
Protocol: as §1, §2

Binder: AYVRNLFLT (also called Peptide No 46) [5T4 9-mer peptide 46 AYVRNLFLT]
- t½ half life [1]: 6.8 h

Binder: NRKGIKKWM [5T4 9-mer peptide 189 NRKGIKKWM]
- t½ half life [2]: 10 h

Binder: SASSFSSSA (also called Peptide No 19) [5T4 9-mer peptide 19 SASSFSSSA]
- t½ half life [3]: 0.2 h

Binder: LQGLPHIRV (also called Peptide No 141) [5T4 9-mer peptide 141 LQGLPHIRV]
- t½ half life [4]: 1.1 h

Binder: PLPDQCPAL (also called Peptide No 29) [5T4 9-mer peptide 29 PLPDQCPAL]
- t½ half life [1]: 2.8 h

Binder: SPLVELILN (also called Peptide No 87) [5T4 9-mer peptide 87 SPLVELILN]
- t½ half life [5]: 2.4 h

B1: 5T4 9-mer peptide 78 ADLSPFAFS (peptide)
peptide: ADLSPFAFS
notes: it stands between 77 and 79; also called Peptide No 78
- t½ half life [3]: 2.6 h

Binder: LELASNHFL [5T4 9-mer peptide 108 LELASNHFL]
- t½ half life [6]: 1.4 h

Binder: FARRPPLAE (also called Peptide No 56) [5T4 9-mer peptide 56 FARRPPLAE]
- t½ half life [7]: 0.3 h

Binder: LASNHFLYL [5T4 9-mer peptide 109]
- iScore [8]: 0.12
- iScore [9]: 0.337
- iScore [10]: 0.224

Binder: GWVSSSSPT (also called Peptide No 14) [5T4 9-mer peptide 14 GWVSSSSPT]
- t½ half life [7]: 1 h

Binder: HMEGYHYRY [5T4 9-mer peptide 198]
- iScore [11]: 0.357
- iScore [12]: 0.24
- iScore [13]: 0.189
- iScore [14]: 0
- iScore [8]: 0.357
- iScore [10]: 0.189

Binder: QNRSFEGMV (also called Peptide No 96) [5T4 9-mer peptide 96 QNRSFEGMV]
- t½ half life [4]: 2.4 h

Binder: NLFLTGNQL (also called Peptide No 48) [5T4 9-mer peptide 48 NLFLTGNQL]
- t½ half life [15]: 0.5 h

Binder: AQLPSLRHL [5T4 9-mer peptide 116 AQLPSLRHL]
- t½ half life [6]: 0.7 h

Binder: NRVLLELNS (also called Peptide No 166) [5T4 9-mer peptide 166 NRVLLELNS]
- t½ half life [5]: 1.3 h

Binder: NLTEVPTDL (also called Peptide No 41) [5T4 9-mer peptide 41 NLTEVPTDL]
- t½ half life [15]: 1.4 h

Binder: NNPWVCDCH (also called Peptide No 147) [5T4 9-mer peptide 147 NNPWVCDCH]
- t½ half life [16]: 0.2 h

Binder: GSRLDEVRA (also called Peptide No 64) [5T4 9-mer peptide 64 GSRLDEVRA]
- t½ half life [7]: 1.9 h

Binder: LEDNALKVL (also called Peptide No 133) [5T4 9-mer peptide 133 LEDNALKVL]
- t½ half life [17]: 5.7 h

Binder: TWLKETEVV [5T4 9-mer peptide 154 TWLKETEVV]
- t½ half life [18]: 6.4 h

Binder: LLAGRALQG (also called Peptide No 102) [5T4 9-mer peptide 102 LLAGRALQG]
- t½ half life [19]: 1.4 h

Binder: TSSASSFSS (also called Peptide No 18) [5T4 9-mer peptide 18 TSSASSFSS]
- t½ half life [20]: 0.7 h

Binder: EHLPSLRQL (also called Peptide No 70) [5T4 9-mer peptide 70 EHLPSLRQL]
- t½ half life [21]: 1.4 h

Binder: AGDGRLRLA (also called Peptide No 6) [5T4 9-mer peptide 6 AGDGRLRLA]
- t½ half life [7]: 0.1 h

Binder: KWMHNIRDA (also called Peptide No 192) [5T4 9-mer peptide 192 KWMHNIRDA]
- t½ half life [22]: 1.4 h

Binder: LSPFAFSGS (also called Peptide No 79) [5T4 9-mer peptide 79 LSPFAFSGS]
- t½ half life [22]: 0.4 h

Binder: PALCECSEA (also called Peptide No 32) [5T4 9-mer peptide 32 PALCECSEA]
- t½ half life [23]: 2.2 h

Binder: VLLELNSAD (also called Peptide No 167) [5T4 9-mer peptide 167 VLLELNSAD]
- t½ half life [23]: 0.8 h

Binder: ELILNHIVP (also called Peptide No 89) [5T4 9-mer peptide 89 ELILNHIVP]
- t½ half life [24]: 1.1 h

Binder: SSAPFLASA (also called Peptide No 22) [5T4 9-mer peptide 22 SSAPFLASA]
- t½ half life [15]: 1.3 h

Binder: MVTWLKETE (also called Peptide No 153) [5T4 9-mer peptide 153 MVTWLKETE]
- t½ half life [18]: 1.2 h

Binder: LVELILNHI (also called Peptide No 88) [5T4 9-mer peptide 88 LVELILNHI]
- t½ half life [21]: 0.3 h

Binder: AFSGSNASV (also called Peptide No 81) [5T4 9-mer peptide 81 AFSGSNASV]
- t½ half life [6]: 0.7 h

Binder: VCDCHMADM (also called Peptide No 149) [5T4 9-mer peptide 149 VCDCHMADM]
- t½ half life [22]: 1.4 h

Binder: LTYVSFRNL [5T4 9-mer peptide 125]
- iScore [11]: 0.522
- iScore [12]: 1.11
- iScore [13]: 0.157
- iScore [14]: 0.574
- iScore [8]: 0.522
- iScore [9]: 1.11
- iScore [10]: 0.157
- iScore [25]: 0.574

Binder: TLAELQGLP [5T4 9-mer peptide 139 TLAELQGLP]
- t½ half life [26]: 0.7 h

Binder: KVLHNGTLA (also called Peptide No 136) [5T4 9-mer peptide 136 KVLHNGTLA]
- t½ half life [24]: 2.2 h

Binder: FLASAVSAQ (also called Peptide No 24) [5T4 9-mer peptide 24 FLASAVSAQ]
- t½ half life [20]: 0.7 h

Binder: AVSAQPPLP (also called Peptide No 26) [5T4 9-mer peptide 26 AVSAQPPLP]
- t½ half life [26]: 1.7 h

Binder: LTCAYPEKM [5T4 9-mer peptide 161]
- iScore [11]: 0.139
- iScore [12]: 0.158
- iScore [13]: 0
- iScore [14]: 0
- iScore [8]: 0.139

Binder: HMADMVTWL [5T4 9-mer peptide 151 HMADMVTWL]
- t½ half life [21]: 7.9 h

Binder: VPTDLPAYV [5T4 9-mer peptide 43]
- iScore [8]: 0.098
